We go through 23 molecules from patent US20060069055, “Delivery of polynucleotides” (published 2006).

B1: HIF decoy 819/820 double (dsDNA)
DNA 1: GAAATACGTGCGCTTTGTGTGTACGTGCAGGAA
DNA 2: TTCCTGCACGTACACACAAAGCGCACGTATTTC
B2: 153/154 H5/PO (dsDNA)
DNA 1: AGTTGAGGACTTTCCAGGC
DNA 2: GCCTGGAAAGTCCTCAACT
modifications: PS at the 5 most 3' linkages of strand 153, strand 154 PO
B3: 153/154 PO (dsDNA)
DNA 1: AGTTGAGGACTTTCCAGGC
DNA 2: GCCTGGAAAGTCCTCAACT
B4: 153/154 PO/H11 (dsDNA)
DNA 1: AGTTGAGGACTTTCCAGGC
DNA 2: GCCTGGAAAGTCCTCAACT
modifications: strand 153 PO; strand 154 PS at the 11 most 3' linkages
B5: HIF decoy 863/864 (dsDNA)
DNA 1: AGCAGACGTGCAGGAT
DNA 2: ATCCTGCACGTCTGCT
B6: HIF decoy 865/866 (dsDNA)
DNA 1: AGCAGACGTGCAGGCA
DNA 2: TGCCTGCACGTCTGCT
B7: HIF decoy 873/874 (dsDNA)
DNA 1: TCCGTACGTGCTGCGT
DNA 2: ACGCAGCACGTACGGA
B8: HIF decoy 869/870 (dsDNA)
DNA 1: AGCAGACGTGCAGGGT
DNA 2: ACCCTGCACGTCTGCT
B9: HIF decoy 821/822 (dsDNA)
DNA 1: CGCGAGCGTACGTGCCTCAGG
DNA 2: CCTGAGGCACGTACGCTCGCG
B10: HIF decoy 849/850 (dsDNA)
DNA 1: GCCTACACGTGGGTTCCC
DNA 2: GGGAACCCACGTGTAGGC
B11: HIF decoy 845/846 (dsDNA)
DNA 1: GAGCGTACGTGCCTCAGG
DNA 2: CCTGAGGCACGTACGCTC
B12: HIF decoy 805/806 (dsDNA)
DNA 1: CCCCCTCGGACGTGACTCGGACCAC
DNA 2: GTGGTCCGAGTCACGTCCGAGGGGG
B13: HIF decoy 841/842 double (dsDNA)
DNA 1: AGCGGACGTGCAGAAGTTGCACGTCCTCT
DNA 2: AGAGGACGTGCAACTTCTGCACGTCCGCT
B14: HIF decoy 879/880 (dsDNA)
DNA 1: GGCTGCTGCAGACGTGCAGGTC
DNA 2: GACCTGCACGTCTGCAGCAGCC
B15: HIF decoy 801/802 (dsDNA)
DNA 1: GCCCTACGTGCTGTCTCA
DNA 2: TGAGACAGCACGTAGGGC
B16: HIF decoy 851/852 (dsDNA)
DNA 1: CGGAGTACGTGACGGAGC
DNA 2: GCTCCGTCACGTACTCCG
B17: HIF decoy 855/856 (dsDNA)
DNA 1: GTGTGTACGTGCAGGAAA
DNA 2: TTTCCTGCACGTACACAC
B18: HIF decoy 843/844 (dsDNA)
DNA 1: GTGCATACGTGGGCTCCA
DNA 2: TGGAGCCCACGTATGCAC
B19: HIF decoy 891/892 (dsDNA)
DNA 1: GGCTGCTGCATACGTGCAGGTC
DNA 2: GACCTGCACGTATGCAGCAGCC
B20: HIF decoy 859/860 (dsDNA)
DNA 1: ACCGTACGTGCTGATC
DNA 2: GATCAGCACGTACGGT
B21: HIF decoy 887/888 (dsDNA)
DNA 1: GGCTGCACCGTACGTGCTGATC
DNA 2: GATCAGCACGTACGGTGCAGCC
B22: HIF decoy 871/872 (dsDNA)
DNA 1: ACCGTACGTGCTGCCA
DNA 2: TGGCAGCACGTACGGT
B23: HIF decoy 853/854 (dsDNA)
DNA 1: TTGCTTACGTGCGCCCGG
DNA 2: CCGGGCGCACGTAAGCAA

For one data set, the target named is T1, HIF-1 complex (HIF-1alpha containing) (UniProt Q16665;P27540 Q16665:1-826,P27540:2-789). In words: competition; smaller is better competition; TransAM plate assay. The note with it: protein: extract; tags: nuclear extract, TransAM HIF-1 kit Active Motif 47096. The protocol: (§1) To assess the relative affinities of oligonucleotides for a HIF-1α containing complex, the HIF-1 TransAM assay (Active Motif, Catalog # 47096) was utilized. The assay was performed according to manufacturer's instructions. Briefly, a double-stranded oligonucletide containing the hypoxia response element (HRE) was immobilized on a 96-well plate. A nuclear extract containing HIF-1 alpha complexes was incubated and allowed to bind to the immobilized oligonucleotide. The unbound material was washed away and the bound HIF-1α detected using an antibody that specificially recognizes HIF-1α. The anti-HIF-1α antibody was detected by a secondary antibody labeled with horseradish peroxidase (HRP), and the amount of HRP in each well was measured using a colorimetric substrate reaction and read using a microplate spectrophotometer.
T1 sequence (Q16665 whole entry, chain 1 of 2): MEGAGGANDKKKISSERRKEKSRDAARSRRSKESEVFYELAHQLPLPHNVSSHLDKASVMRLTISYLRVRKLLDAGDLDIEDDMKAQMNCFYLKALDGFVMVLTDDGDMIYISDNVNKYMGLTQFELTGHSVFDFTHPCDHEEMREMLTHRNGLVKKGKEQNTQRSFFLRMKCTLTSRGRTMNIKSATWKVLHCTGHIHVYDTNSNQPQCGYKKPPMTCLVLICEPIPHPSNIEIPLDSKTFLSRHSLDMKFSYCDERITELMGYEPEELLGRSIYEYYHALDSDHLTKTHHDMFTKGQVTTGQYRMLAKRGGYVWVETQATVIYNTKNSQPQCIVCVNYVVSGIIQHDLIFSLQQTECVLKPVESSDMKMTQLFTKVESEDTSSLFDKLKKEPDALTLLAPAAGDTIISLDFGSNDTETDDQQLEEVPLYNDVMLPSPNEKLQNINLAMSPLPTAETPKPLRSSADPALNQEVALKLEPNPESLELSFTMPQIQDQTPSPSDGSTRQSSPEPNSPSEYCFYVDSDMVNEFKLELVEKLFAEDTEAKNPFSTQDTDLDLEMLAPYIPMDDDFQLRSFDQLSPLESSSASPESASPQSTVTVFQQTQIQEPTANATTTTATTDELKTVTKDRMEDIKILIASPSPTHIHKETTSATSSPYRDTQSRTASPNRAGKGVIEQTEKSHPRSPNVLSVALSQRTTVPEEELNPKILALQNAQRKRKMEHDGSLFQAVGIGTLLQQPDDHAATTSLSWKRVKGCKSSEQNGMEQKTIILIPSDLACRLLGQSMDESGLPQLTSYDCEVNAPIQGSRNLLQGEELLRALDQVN
T1 sequence (P27540 2-789, chain 2 of 2): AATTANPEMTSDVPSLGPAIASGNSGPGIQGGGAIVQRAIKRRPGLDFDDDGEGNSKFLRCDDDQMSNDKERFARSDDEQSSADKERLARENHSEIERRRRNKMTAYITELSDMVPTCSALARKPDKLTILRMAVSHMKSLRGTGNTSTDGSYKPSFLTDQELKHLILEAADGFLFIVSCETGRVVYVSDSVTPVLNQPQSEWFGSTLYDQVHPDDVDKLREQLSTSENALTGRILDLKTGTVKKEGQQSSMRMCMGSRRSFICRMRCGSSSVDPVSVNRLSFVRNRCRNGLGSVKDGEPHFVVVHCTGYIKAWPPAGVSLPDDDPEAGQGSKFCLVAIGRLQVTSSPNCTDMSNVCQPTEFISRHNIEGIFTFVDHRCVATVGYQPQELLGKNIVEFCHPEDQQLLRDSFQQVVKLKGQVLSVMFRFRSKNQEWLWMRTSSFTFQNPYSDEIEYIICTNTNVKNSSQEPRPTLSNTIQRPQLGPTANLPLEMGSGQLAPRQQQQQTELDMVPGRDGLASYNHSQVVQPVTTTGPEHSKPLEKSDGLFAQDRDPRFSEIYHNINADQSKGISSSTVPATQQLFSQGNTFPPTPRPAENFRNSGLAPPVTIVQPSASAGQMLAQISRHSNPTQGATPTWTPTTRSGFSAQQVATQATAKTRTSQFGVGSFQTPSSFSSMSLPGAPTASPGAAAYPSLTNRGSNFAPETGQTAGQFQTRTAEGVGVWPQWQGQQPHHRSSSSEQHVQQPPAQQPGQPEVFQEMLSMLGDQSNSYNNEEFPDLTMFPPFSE
The ability of candidate decoy molecules to compete for binding of HIF-1α to the HRE element immobilized on the plate were measured and compared to reveal relative binding affinities. […] A well containing a competing decoy able to bind HIF-1α with high affinity would give a lower absorbance reading as compared to a decoy with low affinity for HIF-1α. […]
The screen was conducted using different decoy concentrations. For each UV absorbance reading, normalization was done by calculating the ratio of absorbance readings of sample vs. wild type control. […]
For the molecule B1, the binding signal is 0.88 ratio to wild-type control absorbance.

For a further data set, the target named is T2, NF-kB p50/p50 homodimer (Homo sapiens, UniProt P19838 P19838:1-433). Briefly: EMSA; competition against labelled probe 113/114. The note with it: protein: extract; tags: nuclear extract of LPS-stimulated THP-1 cells; chain copies: 2 (stated). The source says: (§2) The EMSA assay was employed to characterize oligonucleotide decoys for the NF-κB transcription factor. […] Using the above modified oligonucleotides to compete for binding for the above-mentioned NF-κB family members, it was possible to compare the binding affinity of these oligonucleotides against the high affinity radiolabeled probe and each other. This assay has also enabled the design of a decoy which selectively binds particular members of the NF-κB family. By using increasing concentrations of various oligonucleotides, it was observed that, by deleting or changing targeted residues in the binding site, it was possible to specifically decrease the binding of the decoy molecule to p50/p50 homodimers, while retaining the affinity for p65/p50 and cRel/p50 heterodimers.
T2 sequence (P19838 1-433, one chain of several): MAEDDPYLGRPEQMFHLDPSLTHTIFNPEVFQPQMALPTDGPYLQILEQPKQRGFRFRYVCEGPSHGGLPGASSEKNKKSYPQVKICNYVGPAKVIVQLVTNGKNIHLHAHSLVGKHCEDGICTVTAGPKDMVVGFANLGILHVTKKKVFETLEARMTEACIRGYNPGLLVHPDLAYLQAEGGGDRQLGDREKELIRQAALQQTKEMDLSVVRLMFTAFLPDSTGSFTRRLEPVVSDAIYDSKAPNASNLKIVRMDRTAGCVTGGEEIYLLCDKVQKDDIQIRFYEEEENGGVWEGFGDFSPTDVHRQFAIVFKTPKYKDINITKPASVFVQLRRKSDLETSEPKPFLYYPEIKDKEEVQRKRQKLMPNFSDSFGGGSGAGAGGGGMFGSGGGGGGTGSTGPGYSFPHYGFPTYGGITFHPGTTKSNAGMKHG
(§3) The NF-κB gel shift assays (EMSA) were performed as follows. A double-stranded oligonucleotide containing a consensus NF-κB binding site (5′ […].GGC 3′) (SEQ ID NO: 26) was end-labeled with γ³²P-ATP using T4 Polynucleotide Kinase (Promega). […] The dried gels were imaged and quantitated using a Typhoon 8600 Phosphorlmager (Amersham) and ImageQuant software. […]
A general note: Mobility shift assays separate free from complexed probe on a gel.
For B2, the IC50 is 83 fold molar excess.

With B3, the IC50 came out at 92 fold molar excess.

For another data set, the target named is T2, NF-kB p50/p50 homodimer. Briefly: EMSA. The note with it: protein: extract; tags: nuclear extract of LPS-stimulated THP-1 cells; chain copies: 2 (stated).
Source text: as §2, §3
B4: the IC50 was 40 fold molar excess.

A further data set concerns the target T1, HIF-1 complex (HIF-1alpha containing). Briefly: competition; TransAM; higher ratio = poorer competition; scramble 2.19. The note with it: protein: extract; tags: nuclear extract, TransAM HIF-1 kit Active Motif 47096. The protocol:
as §1
(§4) The ability of candidate decoy molecules to compete for binding of HIF-1α to the HRE element immobilized on the plate were measured and compared to reveal relative binding affinities. Candidate decoys were added in increasing molar ratios (relative to the amount of oligo immobilized on the plate) to compete for binding to the HIF-1α containing complexes. […] A well containing a competing decoy able to bind HIF-1α with high affinity would give a lower absorbance reading as compared to a decoy with low affinity for HIF-1α. All potential decoys were then compared and ranked in order to assess their relative binding affinities.
(§5) The screen was conducted using different decoy concentrations. For each UV absorbance reading, normalization was done by calculating the ratio of absorbance readings of sample vs. wild type control. The bigger ratio represents less competition of binding with HIF-1α when compared with wild-type control. The smaller (smaller than 1.0 or close to 1.0) ratios represent better binding or better competition.
B5: the binding signal is 2.02 ratio to wild-type control.

Consider B6, for which the binding signal was 2.01 ratio to wild-type control.

Take B7: the binding signal was 2.04 ratio to wild-type control.

Another data set has the same target. In words: competition. The settings on record: protein: extract; tags: nuclear extract, TransAM HIF-1 kit Active Motif 47096. The protocol:
as §1, §4, §5
Consider B8, for which the binding signal is 1.93 ratio to wild-type control absorbance.

As to B9, the binding signal is 1.26 ratio to wild-type control absorbance.

For B10, the binding signal is 1.96 ratio to wild-type control absorbance.

With B11, the binding signal is 1.57 ratio to wild-type control absorbance.

Regarding B12, the binding signal is 1.09 ratio to wild-type control absorbance.

On to B13, for which the binding signal was 0.95 ratio to wild-type control absorbance.

As for B14, the binding signal was 1.98 ratio to wild-type control absorbance.

For B15, the binding signal was 1.83 ratio to wild-type control absorbance.

Turning to B16, the binding signal was 1.08 ratio to wild-type control absorbance.

Consider B17, for which the binding signal is 1.21 ratio to wild-type control absorbance.

Consider B18, for which the binding signal was 1.81 ratio to wild-type control absorbance.

Consider B19, for which the binding signal was 1.6 ratio to wild-type control absorbance.

In the case of B20, the binding signal is 1.85 ratio to wild-type control absorbance.

For B21, the binding signal was 1.94 ratio to wild-type control absorbance.

For the molecule B22, the binding signal is 1.87 ratio to wild-type control absorbance.

In the case of B23, the binding signal is 1.62 ratio to wild-type control absorbance.
